Results taken from PMC8178886, “Recombinant laccase rPOXA 1B real-time, accelerated and molecular dynamics stability study” (BMC Biotechnology, 2021).

Substrate: CCn1c(=NN=c2sc3cc(S(=O)(=O)O)ccc3n2CC)sc2cc(S(=O)(=O)O)ccc21
Test: cells, lysate or membranes
Type: biochemical, Pleurotus ostreatus
Settings: unpurified concentrate stored 12 months at 240.98 K (-32.55 °C), activity unchanged, 0.1 M citrate pH 3.0, 25 °C, ABTS 0.1-3 mM (all above the KM), air O2

B1: rPOXA 1B (Pleurotus ostreatus) (protein)
chain: SIGPRGTLNIANKVIQPDGFYRSTVLAGGSYPGPLIKGKTGDRFQINVVNKLADTSMPVDTSIHWHGLFVKGHNWADGPAMVTQCPIVPGHSFLYDFEVPDQAGTFWYHSHLGTQYCDGLRGPLVVYSKNDPHKRLYDVDDESTVLTVGDWYHAPSLSLTGVPHPDSTLFNGLGRSLNGPASPLYVMNVVKGKRYRIRLINTSCDSNYQFSIDGHTFTVIEADGENTQPLQVDQVQIFAGQRYSLVLNANQAVGNYWIRANPNSGDPGFENQMNSAILRYKGARSIDPTTPEQNATNPLHEYNLRPLIKKPAPGKPFPGGADHNINLNFAFDPATALFTANNHTFVPPTVPVLLQILSGTRDAHDLAPAGSIYDIKLGDVVEITMPALVFAGPHPIHLHGHTFAVVRSAGSSTYNYENPVRRDVVSIGDDPTDNVTIRFVADNAGPWFLHCHIDWHLDLGFAVVFAEGVNQTAAANPVPEAWNNLCPIYNSSNPSKLLMGTNAIGRLPAPLKA
notes: recombinant, made in Pichia pastoris X33/pGAPZalphaA-LaccPost-Stop clone 1 (10 L bioreactor); unpurified enzyme concentrate without preservatives
Km: 41.4 ± 4.6 µM
Vmax: 10.2 µM/min
